Assay results published in the supplement of paper PMC9732359.
± gives the uncertainty stated by the source.

Assay: protein stability index of a GFP-peptide fusion (yeast GPS) (PSI 1-4); higher = more stable; sorted into four equal gates, so the index is relative within each strain
Summary of the method: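 Peptides tiling yeast proteins in 17-residue segments were fused downstream of GFP, with Cherry expressed from the same plasmid. As a pooled library in yeast, mid-log cultures grown in leucine-free medium were sorted into four equal gates by GFP/Cherry fluorescence ratio. Gate plasmids were PCR-amplified and Illumina-sequenced, and barcodes linked reads to strains. Each peptide received a protein stability index equal to the sum of each gate's read frequency times its gate number.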

Row | Sequence | protein stability index (doa10∆) | protein stability index (pdr5∆) | protein stability index (san1∆) | protein stability index (ubr1∆)
1 | YIKSMDLISKKTKTSLL [RPR2] | 2.96 ± 0.081 | 2.66 ± 0.079 | 2.78 ± 0.075 | 2.79 ± 0.051
2 | RHFWGLRVRGQHTKTTG [RPS18A] | 1.81 ± 0.062 | 1.99 ± 0.087 | 1.77 ± 0.12 | 2.16 ± 0.056
3 | TTLKLSPSPILLTSAGC [NUT1] | 1.47 ± 0.043 | 1.42 ± 0.039 | 1.45 ± 0.09 | 1.51 ± 0.036
4 | AVVFKPFKGEVVDGTVV [RPB7] | 3.05 ± 0.1 | 3.03 ± 0.048 | 2.79 ± 0.062 | 2.79 ± 0.068
5 | NNSNSNNNSSNEKEQLS [SEC65] | 2.77 ± 0.041 | 2.72 ± 0.041 | 2.79 ± 0.031 | 2.76 ± 0.035
6 | MEETEQKKIQINKEMGE [SMC3] | – | – | – | 2.49 ± 0.26
7 | YPNSSKLKRNSDRREHD [LIN1] | 3.25 ± 0.083 | 3.1 ± 0.067 | 3.02 ± 0.045 | 3.03 ± 0.075
8 | MQLEEELMKLDGTEYVL [MED6] | 3.26 ± 0.15 | 3.4 ± 0.11 | 3.21 ± 0.091 | 3.26 ± 0.076
9 | SFDSIDHSWFLLIGCKL [CSI1] | 1.71 ± 0.1 | 1.77 ± 0.058 | 1.72 ± 0.2 | 2.58 ± 0.05
10 | GYKSTVKSLRQGKSKLI [RPL30] | 1.31 ± 0.08 | 1.35 ± 0.059 | 1.4 ± 0.2 | 1.48 ± 0.061
11 | DLSVTPQKSSSKGFVFN [YAR002W/NUP60] | 2.74 ± 0.089 | 3.06 ± 0.12 | 2.88 ± 0.057 | 3.06 ± 0.12
12 | YSPNTLGHPDNYIPGNP [COB] | 2.52 ± 0.11 | 2.27 ± 0.088 | 2.9 ± 0.064 | 2.43 ± 0.047
13 | ERKEQEEKEKEQSKEVG [BRN1] | 3.48 ± 0.21 | – | 3.49 ± 0.11 | 3.45 ± 0.14
14 | RTPHEIQEANSVDMSAL [RIP1] | – | 3.46 ± 0.21 | – | 3.24 ± 0.076
15 | PHSLATKTTGKCGSVTV [RPS2] | 1.2 ± 0.12 | 1.27 ± 0.1 | – | –
16 | KQIDIPNFNVEIMQQKF [ECM29] | 2.4 ± 0.25 | 2.5 ± 0.16 | 3.03 ± 0.11 | 3.11 ± 0.097
17 | LEQMELSILKGDYSQAT [RPN5] | 2.86 ± 0.079 | 2.91 ± 0.068 | 2.94 ± 0.11 | 2.64 ± 0.062
18 | YSLQPSVDITGGPWFTD [RPC34] | 1.89 ± 0.079 | 2.54 ± 0.12 | 2.86 ± 0.089 | 2.49 ± 0.064
19 | NNIVSVLTAGVNSVAIK [RPN11] | 2.28 ± 0.075 | 2.26 ± 0.087 | 2.66 ± 0.078 | 1.97 ± 0.058
20 | TLVAQNLKQANNVAYGK [SMC4] | 2.8 ± 0.1 | 2.92 ± 0.089 | 2.87 ± 0.062 | 3 ± 0.067
21 | RWDKEEYQSLMSLKDKL [SMC1] | 3.29 ± 0.076 | 3.31 ± 0.08 | 3.2 ± 0.11 | 3.09 ± 0.053
22 | EQISNNSNQQQNPKLFQ [SIN4] | 2.96 ± 0.062 | 2.67 ± 0.045 | 3.13 ± 0.062 | 2.95 ± 0.052
23 | IDRNLKCQTCQEGMNEC [RPO21] | 2.48 ± 0.086 | 1.38 ± 0.061 | 2.56 ± 0.079 | 2.37 ± 0.079
24 | ASVTKEILGTAQSVGCR [RPL12A] | 1.35 ± 0.087 | 1.51 ± 0.044 | 1.35 ± 0.082 | 1.61 ± 0.082

Row | Sequence | protein stability index (doa10∆) | protein stability index (pdr5∆) | protein stability index (san1∆) | protein stability index (ubr1∆)
25 | TIDEQSQISPEKQTPNK [RPN1] | 3.24 ± 0.17 | 3.57 ± 0.15 | 3.28 ± 0.12 | 3.22 ± 0.056
26 | LQDELKELQLEKESVEK [SMC3] | 3.66 ± 0.13 | 3.25 ± 0.21 | 2.7 ± 0.26 | –
27 | AALDITNVQRIAAYIRR [SMC1] | 3.08 ± 0.16 | 3.07 ± 0.17 | 3.24 ± 0.13 | 3.09 ± 0.091
28 | KKVGITGKYGVRYGSSL [RPL43A] | 3.16 ± 0.065 | 3.28 ± 0.051 | 3.3 ± 0.045 | 3.15 ± 0.033
29 | DCLSFAPTLSQTYINQE [SSN2] | 2.69 ± 0.074 | 2.76 ± 0.081 | 2.77 ± 0.087 | 2.91 ± 0.048
30 | EDIIKRTSPIDNVSNTH [NUT2] | 2.87 ± 0.062 | 2.88 ± 0.06 | 3.01 ± 0.083 | 3.04 ± 0.049
31 | MALKKNTHNKSTKRVTK [POP7] | 2.71 ± 0.1 | 2.73 ± 0.11 | 2.82 ± 0.053 | 2.84 ± 0.06
32 | GIRWELISRLCPNSTGA [RPT1] | 2.04 ± 0.047 | 2.25 ± 0.05 | 2.12 ± 0.076 | 2.19 ± 0.038
33 | RGDSTETSSFGSMFSGD [RRI1] | 3.5 ± 0.087 | 3.27 ± 0.16 | 3.35 ± 0.053 | 3.27 ± 0.15
34 | SSVYRLKFAVQVDKVTK [RPL26A] | 1.67 ± 0.16 | – | 2.71 ± 0.24 | 2.78 ± 0.27
35 | LITVMEKSPDPTIRSNA [YCS4] | 2.35 ± 0.052 | 2.48 ± 0.051 | 2.34 ± 0.053 | 2.57 ± 0.038
36 | KSKAEELTQVPSARQKY [UBP6] | 2.19 ± 0.14 | 2.81 ± 0.12 | 2.38 ± 0.14 | 2.37 ± 0.16
37 | LSGGQKTVCAIALILAI [SMC3] | – | 1.94 ± 0.19 | – | 2.74 ± 0.12
38 | LSEEKEVIFTDVLKSQA [MCD1] | 2.92 ± 0.2 | 3.09 ± 0.23 | 3.13 ± 0.12 | 2.77 ± 0.17
39 | EYIDAEEEESILIAMQP [RPB2] | 3.37 ± 0.076 | 3.41 ± 0.091 | 3.13 ± 0.067 | 3.46 ± 0.091
40 | VGIDTHTATDIYQTLIA [SNF2] | 2.12 ± 0.05 | 2.03 ± 0.048 | 1.85 ± 0.05 | 1.72 ± 0.028
41 | QGPRSYFLDVKCPGCLN [RPS27A] | 2.93 ± 0.097 | 3.38 ± 0.1 | 3.13 ± 0.08 | 2.6 ± 0.11
42 | IKVTVQLKIQNRQAAAS [RPL12A] | 1.57 ± 0.052 | 2 ± 0.052 | 1.75 ± 0.1 | 2.16 ± 0.04
43 | AFSFGAKSNEDKQDGTA [YJL041W/NSP1] | 3.24 ± 0.13 | 2.98 ± 0.16 | 3 ± 0.2 | 3.44 ± 0.14
44 | TVDLALFGSPPFILEYD [YMR129W/POM152] | 2.36 ± 0.044 | 2.49 ± 0.047 | 1.9 ± 0.087 | 2.7 ± 0.032
45 | GTPPMLHQRTHKQVYPL [DSN1] | 2.52 ± 0.1 | 2.87 ± 0.069 | 2.77 ± 0.071 | 2.93 ± 0.056
46 | RESFEDNVVRFLNEARD [RPO21] | 3.21 ± 0.15 | 2.98 ± 0.13 | 3.04 ± 0.16 | 2.92 ± 0.11
47 | YSKAKYPDLQPFVLAEN [CDC53] | 2.3 ± 0.095 | 2.72 ± 0.063 | 2.13 ± 0.07 | 2.26 ± 0.078
